Experiment [1] concerns the target T1, human CL-9 (human, UniProt O95484 1-217).
T1 construct: whole, on cells; also called hCL-9; hCL-9/HT1080 cells
T1 sequence (looked up): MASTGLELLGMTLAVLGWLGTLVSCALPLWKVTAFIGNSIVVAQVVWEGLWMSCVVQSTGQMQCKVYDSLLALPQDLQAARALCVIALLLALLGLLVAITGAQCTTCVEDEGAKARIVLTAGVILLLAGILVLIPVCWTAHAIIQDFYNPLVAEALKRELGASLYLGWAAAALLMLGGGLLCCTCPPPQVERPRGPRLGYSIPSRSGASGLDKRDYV
Briefly: flow cytometry, hybridoma culture supernatant on transfected cells. On the procedure: (§1) After the hybridoma culture supernatants prepared in Example 1 (1A2, 2G8, and 3B2) were individually added and stirred, the resulting mixtures were allowed to stand on ice for 1 hour. After washing with 0.2% BSA-PBS once, goat anti-rat IgG (H +L)-FITC antibody (KPL) diluted with 1% BSA-PBS was added and stirred, and the resulting mixtures were allowed to stand on ice for 30 minutes. After washing with 0.2% BSA-PBS once, PI (Mitenyi Biotec) diluted with 1% BSA-PBS to a final concentration of 5 μg/mL was added, and FCM analysis was performed.
For orientation: A flow cytometer gives signals particle by particle.

Experiment [2] addresses T2, human CL-1 (human, UniProt O95832 1-211).
T2 construct: whole, on cells; also called hCL-1; hCL-1/HT1080 cells
T2 sequence (looked up): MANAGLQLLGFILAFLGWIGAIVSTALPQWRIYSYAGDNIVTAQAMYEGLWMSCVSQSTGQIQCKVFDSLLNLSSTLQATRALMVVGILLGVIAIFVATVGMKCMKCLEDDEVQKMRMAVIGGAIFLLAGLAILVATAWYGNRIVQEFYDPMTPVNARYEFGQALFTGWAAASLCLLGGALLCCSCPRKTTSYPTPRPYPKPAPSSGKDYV
The description is as above. How it is done:
as §1

Experiment [3] has as its target T3, human CL-3 (human, UniProt O15551 1-220).
T3 construct: whole, on cells; also called hCL-3; hCL-3/HT1080 cells
T3 sequence (looked up): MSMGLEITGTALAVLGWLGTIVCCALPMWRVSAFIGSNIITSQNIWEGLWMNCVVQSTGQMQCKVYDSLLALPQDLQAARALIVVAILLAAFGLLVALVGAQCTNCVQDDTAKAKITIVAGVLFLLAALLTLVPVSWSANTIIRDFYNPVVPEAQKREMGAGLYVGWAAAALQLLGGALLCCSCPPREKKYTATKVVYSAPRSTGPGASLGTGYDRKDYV
Described as above. How it is done:
as §1

For experiment [4], the target named is T4, human CL-7 (human, UniProt O95471 1-211).
T4 construct: whole, on cells; also called hCL-7; hCL-7/HT1080 cells
T4 sequence (looked up): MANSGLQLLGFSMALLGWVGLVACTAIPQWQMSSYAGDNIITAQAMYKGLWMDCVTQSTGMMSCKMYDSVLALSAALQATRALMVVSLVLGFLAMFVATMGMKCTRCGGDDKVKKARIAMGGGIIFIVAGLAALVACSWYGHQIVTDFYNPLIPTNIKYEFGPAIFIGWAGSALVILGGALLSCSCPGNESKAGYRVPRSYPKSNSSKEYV
The description is as above. How it is done: as §1

Experiment [5] has as its target T5, human CL-4 (human, UniProt O14493 1-209).
T5 construct: whole, on cells; also called hCL-4; hCL-4/HT1080 cells
T5 sequence (looked up): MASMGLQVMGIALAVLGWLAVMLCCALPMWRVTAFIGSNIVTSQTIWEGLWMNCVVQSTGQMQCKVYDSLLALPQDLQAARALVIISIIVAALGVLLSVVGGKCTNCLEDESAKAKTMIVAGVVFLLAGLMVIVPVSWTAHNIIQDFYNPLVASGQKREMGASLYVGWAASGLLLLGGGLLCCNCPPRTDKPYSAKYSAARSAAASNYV
Described as above. On the procedure: as §1

Experiment [6] concerns the target T6, human CL-6 (human, UniProt P56747 1-220).
T6 construct: whole, on cells; also called hCL-6; hCL-6/HT1080 cells
T6 sequence (looked up): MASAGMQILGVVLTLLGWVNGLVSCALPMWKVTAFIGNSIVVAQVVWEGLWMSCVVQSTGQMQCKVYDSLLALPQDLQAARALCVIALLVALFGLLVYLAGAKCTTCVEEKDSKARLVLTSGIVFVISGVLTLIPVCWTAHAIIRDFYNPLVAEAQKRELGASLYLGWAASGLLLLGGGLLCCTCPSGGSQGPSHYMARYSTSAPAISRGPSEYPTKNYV
Described as above. On the procedure: as §1

In experiment [7] the target is T7, mouse CL-2 (mouse, UniProt O88552 1-230).
T7 construct: whole, on cells; also called mCL-2; mCL-2/L cells
T7 sequence (looked up): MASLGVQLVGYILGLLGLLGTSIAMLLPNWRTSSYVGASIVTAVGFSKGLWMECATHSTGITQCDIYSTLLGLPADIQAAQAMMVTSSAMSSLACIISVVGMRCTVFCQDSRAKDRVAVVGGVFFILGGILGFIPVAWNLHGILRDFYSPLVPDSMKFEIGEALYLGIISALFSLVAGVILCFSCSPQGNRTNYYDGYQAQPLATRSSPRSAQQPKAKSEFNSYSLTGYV
Briefly: flow cytometry, culture supernatant on transfected cells. On the procedure:
as §1
Further, all the three hybridoma culture supernatants 1A2, 2G8, and 3B2 prepared in Example 1 were also confirmed to have affinity to mCL-2/L cells.

The target of experiment [8] is T1, human CL-9. The experiment can be described thus: flow cytometry on transfected cells. From the text: (§2) hCL-1/HT1080 cells, hCL-2/HT1080 cells, hCL-3/HT1080 cells, hCL-4/HT1080 cells, human CL-5 expressing HT1080 cells (hCL-5/HT1080 cells), hCL-6/HT1080 cells, hCL-7/HT1080 cells, and hCL-9/HT1080 cells, mouse CLDN1 expressing L cells (mCL-1/L cells), mCL-2/L cells, and mouse CL4 expressing L cells (mCL-4/L cells) were individually recovered by trypsin treatment. […] Subsequently, after washing with 0.2% BSA-PBS once, goat anti-human IgG (H+L)-FITC antibody (Jackson ImmunoResearch) diluted with 1% BSA-PBS was added and stirred, and the resulting mixtures were allowed to stand on ice for 30 minutes. After washing with 0.2% BSA-PBS once, PI diluted with 1% BSA-PBS to a final concentration of 5 μg/mL was added, and FCM analysis was performed.

In experiment [9] the target is T2, human CL-1. Briefly: flow cytometry on transfected cells.
Source text: as §2

The target of a further experiment is T8, human CL-5 (human, UniProt O00501 1-218).
T8 construct: whole, on cells; also called hCL-5; hCL-5/HT1080 cells
T8 sequence (looked up): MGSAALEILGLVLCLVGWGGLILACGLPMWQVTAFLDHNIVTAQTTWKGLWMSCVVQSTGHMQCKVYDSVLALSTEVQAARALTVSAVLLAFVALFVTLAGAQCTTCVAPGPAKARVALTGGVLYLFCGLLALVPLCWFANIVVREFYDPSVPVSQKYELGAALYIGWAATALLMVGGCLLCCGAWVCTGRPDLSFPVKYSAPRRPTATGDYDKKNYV
Briefly: flow cytometry on transfected cells.
Source text: as §2

Experiment [10] has as its target T3, human CL-3. The experiment can be described thus: flow cytometry on transfected cells.
Source text: as §2

Experiment [11] has as its target T4, human CL-7. The experiment can be described thus: flow cytometry on transfected cells.
Source text: as §2

Experiment [12] addresses T5, human CL-4. The experiment can be described thus: flow cytometry on transfected cells.
Source text: as §2

The next experiment concerns the target T9, mouse CL4 (mouse, UniProt O35054 1-210).
T9 construct: whole, on cells; also called mCL-4; mCL-4/L cells
T9 sequence (looked up): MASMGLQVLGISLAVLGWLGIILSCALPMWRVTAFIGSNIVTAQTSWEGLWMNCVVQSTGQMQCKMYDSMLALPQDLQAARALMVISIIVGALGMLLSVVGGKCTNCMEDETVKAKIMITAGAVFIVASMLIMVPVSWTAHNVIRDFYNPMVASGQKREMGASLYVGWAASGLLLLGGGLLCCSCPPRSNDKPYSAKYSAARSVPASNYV
The experiment can be described thus: flow cytometry on transfected cells.
Source text: as §2

The target of another experiment is T10, mouse CLDN1 (mouse, UniProt O88551 1-211).
T10 construct: whole, on cells; also called mCL-1; mCL-1/L cells
T10 sequence (looked up): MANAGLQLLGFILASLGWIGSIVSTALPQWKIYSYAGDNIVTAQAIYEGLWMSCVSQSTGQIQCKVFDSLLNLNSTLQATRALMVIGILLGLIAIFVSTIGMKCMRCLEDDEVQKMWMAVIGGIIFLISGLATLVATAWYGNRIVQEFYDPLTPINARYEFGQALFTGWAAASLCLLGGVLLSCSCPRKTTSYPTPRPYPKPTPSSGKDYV
The experiment can be described thus: flow cytometry on transfected cells.
Source text: as §2

Experiment [13] deals with T6, human CL-6. Briefly: flow cytometry on transfected cells.
Source text: as §2

Experiment [14] deals with T7, mouse CL-2. Briefly: flow cytometry on transfected cells, antibody at 5 µg/mL.
Source text: as §2

B1: anti-CL-2 antibody 2G8 (antibody, IgG2b, V domains shown)
VH: QVNLLQSGAALVKPGASVRLSCRVSGYSFTVSFLHWVKQSHGKSLEWIGYINPYSGSPNYNEKFKSKTTLTVDKSTSTAYMELSGLTSEDSASYYCTNWDYWGQGVMVTVSS
VL: DVVMTQTPVSLSLAIGQPASISCKSSQSLLGSSGKTFLNWILQRPGQSPKRLIYQVSTLYSEVPDRFSGSGSETEFTLKITRVEAEDLGVYYCWQGIHFPHTFGAGTKLELKR
notes: also called clone 2G8; hybridoma culture supernatant 2G8
B1: the binding result in the experiment with human CL-9 [1], with human CL-1 [2], in the experiment with human CL-3 [3], in the experiment with human CL-7 [4], with human CL-4 [5] and in the experiment with human CL-6 [6] was “no binding” throughout. Further, the binding result in the experiment with mouse CL-2 [7] was “binds”.

B2: anti-CL-2 human-rat chimeric antibody 2G8 produced in Example 4 (antibody, V domains shown)
VH: B1 VH
VL: B1 VL
notes: Variable regions of rat 2G8 cloned into vectors with human constant regions (VH: pFUSE-CHIg-hG1, human IgG1); also called anti-CL-2 chimeric antibody 2G8; anti-CL-2 chimeric antibody 2G8a
Take B2: the binding result in the experiment with human CL-9 [8], in the experiment with human CL-1 [9], with human CL-5, with human CL-3 [10], in the experiment with human CL-7 [11] and with human CL-4 [12] was “no binding (tested: 5 µg/mL)” in each case. For the same molecule, the binding result is recorded as “no binding (tested: 5 µg/mL)” with mouse CL4, “no binding (tested: 5 µg/mL)” in the experiment with mouse CLDN1, “no binding (tested: 5 µg/mL)” in the experiment with human CL-6 [13] and “binds” with mouse CL-2 [14].

The values are drawn from patent US20200140542A1 (OSAKA UNIVERSITY, published 2020).
